B1: rSema: recombinant Sema (rSema) protein, which included the Sema and PSI domains of the Met receptor (residues 25-567, 8×His tag) (protein)
chain: ECKEALAKSEMNVNMKYQLPNFTAETPIQNVILHEHHIFLGATNYIYVLNEEDLQKVAEYKTGPVLEHPDCFPCQDCSSKANLSGGVWKDNINMALVVDTYYDDQLISCGSVNRGTCQRHVFPHNHTADIQSEVHCIFSPQIEEPSQCPDCVVSALGAKVLSSVKDRFINFFVGNTINSSYFPDHPLHSISVRRLKETKDGFMFLTDQSYIDVLPEFRDSYPIKYVHAFESNNFIYFLTVQRETLDAQTFHTRIIRFCSINSGLHSYMEMPLECILTEKRKKRSTKKEVFNILQAAYVSKPGAQLARQIGASLNDDILFGVFAQSKPDSAEPMDRSAMCAFPIKYVNDFFNKIVNKNNVRCLQHFYGPNHEHCFNRTLLRNSSGCEARRDEYRTEFTTALQRVDLFMGQFSEVLLTSISTFIKGDLTIANLGTSEGRFMQVVVSRSGPSTPHVNFLLDSHPVSPEVIVEHTLNQNGYTLVITGKKITKIPLNGLGCRHFQSCSQCLSAPPFVQCGWCHDKCVRSEECLSGTWTQQICLPAIYKHHHHHHHH

Experiments:
[1] = target: T1, Met extracellular domain deletion mutants (EC-WT, ΔS, ΔP, ΔIPT3, TM) (Homo sapiens, UniProt P08581); assay: Co-immunoprecipitation of HGF / scHGF with V5/His-tagged Met deletion mutants; assay type: binding; conditions: lysates of transfected 293 cells incubated with 5 μg HGF or scHGF, HGF α chain immunoblot
T1 construct: Sub-domain deletions of the Met extracellular domain were made from the N-terminus and tagged after the TM region with V5/His; expressed in transfected cells; host or cells: 293 cells (lysates)
Source text: Extracellular sub-domain deletions of c-Met were constructed using conventional PCR methods. N-terminal primers containing the start of Sema, PSI, first IPT, or fourth IPT domains flanked by a KpnI site were paired with a C-terminal primer up to Met residue 959 flanked by a StuI site. c-Met was used as template and the PCR fragments for each clone were inserted into pCR-Blunt II-TOPO vector using the Zero Blunt TOPO PCR cloning kit (Invitrogen) according to manufacturer's instructions. The clones were confirmed by DNA sequencing. The constructs were then subcloned into pcDNA3.1 V5/His vector (Invitrogen) via KpnI and EcoRV to add a tag at the C-terminus. The signal peptide of Met was added via the HindIII and KpnI sites at the N-terminus of each clone. Each clone was digested with HindIII and EcoRV and subcloned into pRK5TKneo vector via HindIII and PmeI. For EC-WT Flag and EC-WT V5/His clones, an N-terminal primer containing a HindIII site was paired with a C-terminal primer up to Met residue 595 flanked by a StuI site. EC-WT V5/His was subcloned via HindIII/StuI into the HindIII/EcoRV sites of pcDNA3.1 V5/His, and then subcloned into pRK5TKneo as described above. For EC-WT Flag, the PCR fragment was ligated to pCR-Blunt II-TOPO vector. […]
Cell lines were obtained from American Type Culture Collection (ATCC). […] Proteins were detected by enhanced chemiluminescence (ECL-Plus, Amersham). […]

[2] = system: recombinant EC-Met and Sema domain proteins; assay: Coimmunoprecipitation with recombinant EC-Met and Sema domain proteins; assay type: binding; conditions: data not shown
[3] = system: H441 cells; assay: Scrape assay (Met mediated cell motility); assay type: cell-based, Human
Description: H441 cells were seeded at a density of 4.5×10^4 cells/well in a 96-well plate with 10% FBS in 50:50 DMEM/F12. The next day, a single scrape was made in the confluent monolayer in each well as described previously (Lorenzato et al., 2002). The cells were then incubated with media containing 0.5% BSA and treated with mock, 10 μg/ml 5D5, 10 μg/ml Sema, or 100 ng/ml HGF. The scrape was monitored and photographed daily. Representative results are shown for Day 2.
H441 cells were used in a scrape assay as a measure of Met mediated cell motility (Lorenzato et al., 2002). H441 cells grown to high density were scraped in each well on day 0 and maintained in serum-free media containing 0.5% BSA for the duration of the experiment (FIG. 6). Cells were either treated with 10 μg/ml rSema or 5D5 or 100 ng/ml HGF as a positive control or mock treated. […] These observations were consistent in four separate experiments.
To examine the effect of rSema on cell motility in the presence of ligand, cells were treated with 0, 0.1, 0.5, or 5 μg/ml rSema plus 20 ng/ml HGF. Cells treated with HGF alone closed the gap completely by Day 1.

[4] = target: T2, Met (Homo sapiens, UniProt P08581); conditions: Lokker et al., 1992; cited from earlier work
Target sequence in this assay (P08581 25-1390): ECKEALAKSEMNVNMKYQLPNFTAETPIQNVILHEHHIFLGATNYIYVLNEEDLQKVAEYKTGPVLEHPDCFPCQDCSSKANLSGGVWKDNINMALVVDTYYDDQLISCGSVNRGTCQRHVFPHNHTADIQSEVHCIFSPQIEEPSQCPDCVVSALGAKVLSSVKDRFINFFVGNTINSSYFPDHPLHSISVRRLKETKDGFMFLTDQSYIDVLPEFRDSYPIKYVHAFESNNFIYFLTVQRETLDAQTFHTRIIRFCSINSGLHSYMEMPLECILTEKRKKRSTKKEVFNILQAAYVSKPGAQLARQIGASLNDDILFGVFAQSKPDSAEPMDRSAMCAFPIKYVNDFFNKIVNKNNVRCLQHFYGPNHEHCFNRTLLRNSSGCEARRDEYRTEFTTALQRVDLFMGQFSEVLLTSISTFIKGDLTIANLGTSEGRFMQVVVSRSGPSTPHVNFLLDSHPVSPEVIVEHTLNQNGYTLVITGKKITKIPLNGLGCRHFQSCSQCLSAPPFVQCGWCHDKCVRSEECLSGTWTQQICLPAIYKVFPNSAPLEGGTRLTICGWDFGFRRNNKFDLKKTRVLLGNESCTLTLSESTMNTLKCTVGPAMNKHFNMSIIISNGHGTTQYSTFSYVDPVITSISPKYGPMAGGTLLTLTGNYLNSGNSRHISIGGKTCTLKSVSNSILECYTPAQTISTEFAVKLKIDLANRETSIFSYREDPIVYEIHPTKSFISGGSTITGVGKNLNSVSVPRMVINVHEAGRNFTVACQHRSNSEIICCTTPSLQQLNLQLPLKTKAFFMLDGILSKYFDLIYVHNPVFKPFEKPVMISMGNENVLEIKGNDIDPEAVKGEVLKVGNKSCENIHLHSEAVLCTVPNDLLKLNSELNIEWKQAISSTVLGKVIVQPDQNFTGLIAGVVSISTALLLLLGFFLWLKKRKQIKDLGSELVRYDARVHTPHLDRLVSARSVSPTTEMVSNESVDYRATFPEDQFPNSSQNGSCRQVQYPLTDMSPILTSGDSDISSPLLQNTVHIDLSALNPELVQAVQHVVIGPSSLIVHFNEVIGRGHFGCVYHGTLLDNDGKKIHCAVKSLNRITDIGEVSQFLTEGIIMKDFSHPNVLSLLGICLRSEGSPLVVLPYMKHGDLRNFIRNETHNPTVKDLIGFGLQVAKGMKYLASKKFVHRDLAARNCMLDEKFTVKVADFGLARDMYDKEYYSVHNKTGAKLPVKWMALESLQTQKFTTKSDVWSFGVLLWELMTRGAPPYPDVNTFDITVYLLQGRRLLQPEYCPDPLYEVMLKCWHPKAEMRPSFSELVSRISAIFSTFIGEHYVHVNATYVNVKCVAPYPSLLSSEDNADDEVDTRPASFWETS

[5] = system: Akt; assay: Akt phosphorylation in H441 cells; assay type: cell-based, Human; conditions: H441, increasing concentrations of rSema in the presence of HGF; data not shown
Source text: (§1) A transwell assay with MDA-MB-435 cells was used to measure Met driven cell migration (Coltella et al., 2003). […] The data correlated with the scrape assay results in the H441 cell line. Activation of Akt was also examined in H441 and MDA-MB-435 cells used in the cell motility and migration assays. […] The data correlated with observations that rSema can inhibit cell motility in the presence of ligand. Taken together, these observations supports the conclusion that a Sema domain antagonist, such as a recombinant polypeptide comprising a Sema sequence, is capable of not only inhibiting Met activation, but also blocking downstream effects of cell motility and migration in both ligand dependent and independent contexts.

[6] = system: MAPK; assay: MAPK phosphorylation in A549 cells (immunoblot); assay type: cell-based, Human
Description: (§2) Cell lines were obtained from American Type Culture Collection (ATCC). 293 cells were maintained in DMEM supplemented with 10% FBS (Sigma), penicillin/streptomycin (GIBCO), and glutamine A549, H441, and MDA-MB-435 cells were maintained in 50:50 DMEM/F12 (Cellgro) supplemented with 10% FBS, penicillin/streptomycin, and glutamine Cells were transfected with 1-12 μg of the indicated constructs using Lipofectamine 2000 (Invitrogen) according to manufacturer's instructions. Twenty-four hrs later cells were harvested with 1% NP40 lysis buffer containing Complete protease inhibitor cocktail tablet and phosphatase inhibitor cocktail 2 (Roche and Sigma, respectively). For Met tyrosine phosphorylation and MAPK phosphorylation studies, cells were serum-starved for 2 hr with 0.5% BSA. Cells treated with 10 μg/ml anti-Met 5D5-Fab or rSema were incubated for an additional 1 hr prior to lysis. Cell debris was centrifuged and the supernatant was precleared with Protein A Sepharose (Sigma) or Protein G-Plus agarose beads (Santa Cruz) for 1 hr. 500 μg of lysates was then immunoprecipitated with 10 μg 5D5 antibody (Genentech) or 35 ul of Met (C-28) agarose conjugate (Santa Cruz) overnight at 4° C. with rotation. For HGF binding studies, 500 μg of lysates were incubated with 5 μg scHGF or HGF followed by immunoprecipitation with 1 μg of V5 antibody. Protein A or G beads were added for an additional 2 hrs before immunoprecipitates were washed 3 times with 1% NP40 lysis buffer. After addition of 2× sample buffer with 10 mM DTT, the samples were run on 4-12% Tris-glycine gels (Invitrogen). […] Proteins were detected by enhanced chemiluminescence (ECL-Plus, Amersham).
(§3) Human tumor cells were treated with increasing concentrations of rSema and analyzed for Met tyrosine phosphorylation and downstream activation of mitogen activated protein kinase (MAPK) upon HGF stimulation. […]

[7] = system: MDA-MB-435 cells; assay: Transwell migration assay; assay type: cell-based, Human; conditions: MDA-MB-435, 10 μg/ml in upper chamber, absence of HGF, vs mock
Description: Transwell migration assays were carried out as previously described with modifications (Coltella et al., 2003). MDA-MB-435 cells were seeded at 1.2×10^5 cells in media containing 0.5% BSA to the upper chamber of each transwell (Costar) that had been previously coated with 10 ug/ml collagen type IV (Sigma). Mock, 10 μg/ml anti-Met 5D5-Fab, or 10 μg/ml Sema was added to the upper chamber. As a positive control, 100 ng/ml HGF was also added to the lower chamber of mock-treated wells. The next day, the cells were fixed with 4% paraformaldehyde and stained with 0.5% crystal violet. Cells that had migrated to the lower chamber were solubilized with 10% acetic acid and the absorbance was measured at 560 nm in a microplate reader.
A transwell assay with MDA-MB-435 cells was used to measure Met driven cell migration (Coltella et al., 2003). […] The data correlated with the scrape assay results in the H441 cell line. Activation of Akt was also examined in H441 and MDA-MB-435 cells used in the cell motility and migration assays. […] The data correlated with observations that rSema can inhibit cell motility in the presence of ligand. […]

[8] = system: MAPK; assay: MAPK phosphorylation in H441 cells (immunoblot); assay type: cell-based, Human
Description: as §2, with “hr.” for “hr. 500 μg of lysates was then immunoprecipitated with 10 μg 5D5 antibody (Genentech) or 35 ul of Met (C-28) agarose conjugate (Santa Cruz) overnight at 4° C. with rotation. For HGF binding studies, 500 μg of lysates were incubated with 5 μg scHGF or HGF followed by immunoprecipitation with 1 μg of V5 antibody. Protein A or G beads were added for an additional 2 hrs before immunoprecipitates were washed 3 times with 1% NP40 lysis buffer. After addition of 2× sample buffer with 10 mM DTT, the samples were run on 4-12% Tris-glycine gels (Invitrogen).”
as §3

[9] = system: Akt; assay: Akt phosphorylation in MDA-MB-435 cells; assay type: cell-based, Human; conditions: MDA-MB-435, increasing concentrations of rSema in the presence of HGF; data not shown
Source text: as §1

[10] = target: T2, Met; assay: Met tyrosine phosphorylation in A549 cells (immunoprecipitation / phosphotyrosine immunoblot); assay type: cell-based; parameters: endogenous in cells; host or cells: A549 (lung carcinoma)
Description: as §2, §3
Target sequence in this assay (P08581 308-1390, one chain of several): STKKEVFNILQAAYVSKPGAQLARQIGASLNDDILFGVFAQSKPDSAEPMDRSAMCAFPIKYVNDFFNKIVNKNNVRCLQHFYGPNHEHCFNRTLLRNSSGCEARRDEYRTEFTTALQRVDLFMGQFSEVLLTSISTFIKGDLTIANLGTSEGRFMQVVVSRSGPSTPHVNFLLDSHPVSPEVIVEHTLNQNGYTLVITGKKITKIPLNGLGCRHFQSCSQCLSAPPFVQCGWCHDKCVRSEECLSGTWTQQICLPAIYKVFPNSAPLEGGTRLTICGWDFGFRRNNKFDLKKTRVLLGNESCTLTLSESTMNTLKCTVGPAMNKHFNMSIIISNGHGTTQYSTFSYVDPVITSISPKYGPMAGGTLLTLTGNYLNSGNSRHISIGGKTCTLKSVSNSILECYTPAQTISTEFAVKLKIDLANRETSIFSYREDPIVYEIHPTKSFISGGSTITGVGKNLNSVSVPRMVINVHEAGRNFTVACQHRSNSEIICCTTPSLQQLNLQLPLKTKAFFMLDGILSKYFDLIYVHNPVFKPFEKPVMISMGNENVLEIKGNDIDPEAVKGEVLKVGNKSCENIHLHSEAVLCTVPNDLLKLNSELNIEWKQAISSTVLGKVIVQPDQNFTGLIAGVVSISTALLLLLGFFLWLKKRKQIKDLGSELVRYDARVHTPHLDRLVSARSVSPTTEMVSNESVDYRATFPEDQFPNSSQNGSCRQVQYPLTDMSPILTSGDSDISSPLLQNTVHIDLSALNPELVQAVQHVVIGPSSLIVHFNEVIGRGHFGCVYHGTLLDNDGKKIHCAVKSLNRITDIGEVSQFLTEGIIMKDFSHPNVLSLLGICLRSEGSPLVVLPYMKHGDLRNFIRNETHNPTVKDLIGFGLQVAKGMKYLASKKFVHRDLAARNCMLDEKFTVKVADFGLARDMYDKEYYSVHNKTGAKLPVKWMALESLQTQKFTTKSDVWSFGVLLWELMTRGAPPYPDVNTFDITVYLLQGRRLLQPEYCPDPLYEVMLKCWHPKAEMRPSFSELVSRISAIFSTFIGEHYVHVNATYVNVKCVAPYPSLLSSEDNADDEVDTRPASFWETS

[11] = system: MAPK; assay: MAPK phosphorylation in MDA-MB-435 cells (immunoblot); assay type: cell-based, Human
Description: as §2, with “hr.” for “hr. 500 μg of lysates was then immunoprecipitated with 10 μg 5D5 antibody (Genentech) or 35 ul of Met (C-28) agarose conjugate (Santa Cruz) overnight at 4° C. with rotation. For HGF binding studies, 500 μg of lysates were incubated with 5 μg scHGF or HGF followed by immunoprecipitation with 1 μg of V5 antibody. Protein A or G beads were added for an additional 2 hrs before immunoprecipitates were washed 3 times with 1% NP40 lysis buffer. After addition of 2× sample buffer with 10 mM DTT, the samples were run on 4-12% Tris-glycine gels (Invitrogen).”
as §3

[12] = A549, serum-free, 10 μg/ml, absence of HGF, vs mock

T1 sequence (P08581 308-959 limits assumed, stated change not applied, one chain of several): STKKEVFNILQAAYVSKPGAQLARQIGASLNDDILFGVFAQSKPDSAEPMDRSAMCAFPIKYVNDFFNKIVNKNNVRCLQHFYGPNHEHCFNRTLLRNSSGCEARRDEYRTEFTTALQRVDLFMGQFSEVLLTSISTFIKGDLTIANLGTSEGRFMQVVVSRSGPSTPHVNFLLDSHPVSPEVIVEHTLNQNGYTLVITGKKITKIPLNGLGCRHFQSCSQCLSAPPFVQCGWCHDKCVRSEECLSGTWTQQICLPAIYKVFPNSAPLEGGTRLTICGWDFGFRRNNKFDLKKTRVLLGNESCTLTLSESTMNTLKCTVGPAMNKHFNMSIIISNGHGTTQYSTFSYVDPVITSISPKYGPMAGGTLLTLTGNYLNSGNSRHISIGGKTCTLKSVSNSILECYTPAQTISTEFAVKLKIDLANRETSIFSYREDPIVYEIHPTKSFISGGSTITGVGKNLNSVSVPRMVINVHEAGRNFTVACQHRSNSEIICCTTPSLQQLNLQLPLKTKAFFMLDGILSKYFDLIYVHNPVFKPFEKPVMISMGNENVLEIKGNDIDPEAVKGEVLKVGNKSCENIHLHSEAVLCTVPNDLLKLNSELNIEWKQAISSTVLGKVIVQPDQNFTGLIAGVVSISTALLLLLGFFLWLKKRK

Met phosphorylation ([10]; A549, serum starved, 0-100 μg/ml rSema with 10 ng/ml HGF, 10 min) | ligand independent Met phosphorylation [10, 12] | Molecule | binding to Met deletion mutants [1] | binding to recombinant EC-Met and Sema domain proteins [2] | gap closure in scrape assay (positive control) ([3]; H441, 100 ng/ml HGF, serum-free) | binding and activation of the Met receptor [4] | Akt phosphorylation [5] | phosphorylation of MAPK ([6]; A549, increasing concentrations of rSema in the presence of HGF (10 ng/ml)) | phospho-MAPK levels [6, 12] | gap closure in scrape assay in the presence of ligand ([3]; 0, 0.1, 0.5 or 5 μg/ml rSema plus 20 ng/ml HGF, data not shown) | gap closure in scrape assay ([3]; H441, 10 μg/ml, serum-free, absence of HGF, Day 2, mock gap closed completely) | cell migration (absorbance at 560 nm of migrated cells) [7] | phospho-MAPK ([8]; H441, 0-100 μg/ml rSema plus 5 ng/ml HGF, 5 min) | MAPK phosphorylation ([8]; H441, 10 μg/ml, absence of HGF) | Akt phosphorylation [9] | phospho-MAPK ([11]; MDA-MB-435, 0-100 μg/ml rSema plus 10 ng/ml HGF, 5 min) | MAPK phosphorylation ([11]; MDA-MB-435, 10 μg/ml, absence of HGF)
– | – | HGF: Recombinant HGF, cognate ligand of the Met receptor; positive control | bound EC-WT alone | bound to recombinant EC-Met and Sema domain proteins | closed the gap by Day 1 | – | – | – | – | – | – | – | – | – | – | – | –
– | – | scHGF (R494E): Single-chain HGF containing an R494E mutation [reference compound] | only binds EC-WT and not the Sema deleted mutants | bound to recombinant EC-Met and Sema domain proteins | – | binds and inhibits activation of the Met receptor | – | – | – | – | – | – | – | – | – | – | –
decrease in Met phosphorylation | inhibition | B1 | – | – | – | – | dose dependent decrease in Akt phosphorylation | phosphorylation of MAPK decreased | inhibition | retained the gap in a dose dependent manner | a gap remained | consistently decreased | dose dependent decrease in phospho-MAPK | decrease in MAPK phosphorylation | dose dependent decrease in Akt phosphorylation | dose dependent decrease in phospho-MAPK | decrease in MAPK phosphorylation

Source: patent US20120171210A1, “METHODS AND COMPOSITIONS FOR INHIBITING C-MET DIMERIZATION AND ACTIVATION” (Genentech, Inc., priority 2003, published 2012)
